The values that follow come from PMC6449940, “The Cdc42 effectors Gic1 and Gic2 regulate polarized post-Golgi secretion” (Cell & Bioscience, 2019).

For the assay, the target named is T1, His6-Cdc42 (S. cerevisiae, UniProt P19073 1-191).
T1 construct: Cdc42, small GTPase, S. cerevisiae; also called Hisx6-Cdc42; Cdc42 wild type; source: bacteria, purified (Hisx6 fusion)
Briefly: pull-down; GST-Sec3N (a.a.71–241) on glutathione Sepharose (20 μg), His6-Cdc42 or mutant (10 μg) in the presence of GTPγS; bound protein detected with anti-Hisx6 antibody. Particulars: both partners purified.

T1 sequence (P19073 whole entry, the tested form may be a part): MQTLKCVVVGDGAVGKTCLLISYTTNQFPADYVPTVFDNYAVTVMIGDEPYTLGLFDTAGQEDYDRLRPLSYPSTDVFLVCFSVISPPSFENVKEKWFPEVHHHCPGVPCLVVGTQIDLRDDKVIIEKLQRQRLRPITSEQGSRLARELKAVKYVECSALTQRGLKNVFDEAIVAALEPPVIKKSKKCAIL

B1: GST-Sec3N (a.a.71–241) (domain or fragment, S. cerevisiae (budding yeast), UniProt P33332 71-241, looked up)
chain: SSQTSNFLAEQYERDRKAIINCCFSRPDHKTGEPPNNYITHVRIIEDSKFPSSRPPPDSKLENKKKRLLILSAKPNNAKLIQIHKARENSDGSFQIGRTWQLTELVRVEKDLEISEGFILTMSKKYYWETNSAKERTVFIKSLITLYIQTFEGHVPELVNWDLSLFYLDER
notes: Sec3, exocyst subunit, budding yeast, residues 71-241 (N-terminus, PH domain-like region); also called Amino-terminus of Sec3 (a.a.71–241); source: GST fusion protein, purified and conjugated to glutathione Sepharose
B1: the binding result is reported as “binds”.
